From PMC7687367 (Immunity, 2020)

Target: T1, SARS-CoV-2 RBD, His-tagged, for antibody binding studies (SARS-CoV-2, UniProt P0DTC2)
T1 construct: source: HEK293F, transient, purified from supernatant (Ni-NTA agarose)
Assay: BLI
Details: both partners purified

B1: COVA1-16 VH R100bS mutant (antibody, V domains shown)
VH: QVQLVQSGAEVKKPGASVKVSCKASGYTFTSYYMHWVRQAPGQGLEWMGIINSSGGSTSYAQKFQGRVTMTRDTSTSTVYMELSSLRSEDTAVYYCARPPRNYYDSSGYYQRAEYFQHWGQGTLVTVSS
VL: DIQLTQSPSSLSASVGDRVTITCQASQDISNYLNWYQQRPGKAPKLLIYDASNLETGVPSRFSGSGSGTDFTFTISSLQPEDIATYYCQQYDNPPLTFGGGTKLEIK
B1: binds.
